These results are taken from PMC3824618.

In general, stoichiometry N refers to a count of units in the complex or per binding partner.

For the experiment, the target named is T1, wild-type human cystathionine β-synthase, HIS-tagged, expressed in HEK-293 cells (human), P35520.
T1 chain: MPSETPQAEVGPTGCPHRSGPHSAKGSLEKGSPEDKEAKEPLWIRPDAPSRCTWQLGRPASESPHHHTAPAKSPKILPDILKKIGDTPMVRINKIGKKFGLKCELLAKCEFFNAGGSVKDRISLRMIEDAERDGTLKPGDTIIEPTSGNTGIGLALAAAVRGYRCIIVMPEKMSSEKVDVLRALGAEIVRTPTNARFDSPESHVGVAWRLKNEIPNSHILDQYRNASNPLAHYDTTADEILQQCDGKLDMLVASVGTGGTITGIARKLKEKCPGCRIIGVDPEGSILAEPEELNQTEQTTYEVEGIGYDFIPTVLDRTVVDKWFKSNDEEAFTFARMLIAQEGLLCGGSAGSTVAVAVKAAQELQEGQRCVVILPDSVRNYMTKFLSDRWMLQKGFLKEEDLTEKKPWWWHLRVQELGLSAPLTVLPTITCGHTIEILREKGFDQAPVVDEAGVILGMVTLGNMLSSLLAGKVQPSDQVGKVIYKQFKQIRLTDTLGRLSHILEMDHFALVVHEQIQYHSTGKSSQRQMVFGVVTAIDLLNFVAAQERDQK
Briefly: native gel or EMSA. The conditions noted are these: remark: other sources report otherwise. A general note: Mobility shift assays separate free from complexed probe on a gel.

B1: wild-type human cystathionine β-synthase, HIS-tagged, expressed in HEK-293 cells, P35520 1-551 (enzyme)
chain: MPSETPQAEVGPTGCPHRSGPHSAKGSLEKGSPEDKEAKEPLWIRPDAPSRCTWQLGRPASESPHHHTAPAKSPKILPDILKKIGDTPMVRINKIGKKFGLKCELLAKCEFFNAGGSVKDRISLRMIEDAERDGTLKPGDTIIEPTSGNTGIGLALAAAVRGYRCIIVMPEKMSSEKVDVLRALGAEIVRTPTNARFDSPESHVGVAWRLKNEIPNSHILDQYRNASNPLAHYDTTADEILQQCDGKLDMLVASVGTGGTITGIARKLKEKCPGCRIIGVDPEGSILAEPEELNQTEQTTYEVEGIGYDFIPTVLDRTVVDKWFKSNDEEAFTFARMLIAQEGLLCGGSAGSTVAVAVKAAQELQEGQRCVVILPDSVRNYMTKFLSDRWMLQKGFLKEEDLTEKKPWWWHLRVQELGLSAPLTVLPTITCGHTIEILREKGFDQAPVVDEAGVILGMVTLGNMLSSLLAGKVQPSDQVGKVIYKQFKQIRLTDTLGRLSHILEMDHFALVVHEQIQYHSTGKSSQRQMVFGVVTAIDLLNFVAAQERDQK
Consider B1, for which the stoichiometry N worked out at 4.
